{
  "source": "patent US6949244",
  "key": {"[1]": {"target": "murine monoclonal anti-HMFG antibody MC-10 (BrE-1)", "assay": "RIA: 125I-11D10 bound to BrE-1 coated plate, no inhibitor"}, "BrE-3 [2]": {"target": "BrE-3", "assay": "RIA: plate coated with 100 ng 11D10, 125I-BrE-3 bound"}, "[3]": {"target": "murine monoclonal anti-HMFG antibody MC-10 (BrE-1)", "assay": "competition RIA: 250 ng 11D10 mixed with labeled BrE-1, binding to MCF-7 / SKBR3 cell monolayers"}, "[4]": {"target": "murine monoclonal anti-HMFG antibody MC-10 (BrE-1)", "assay": "competition RIA: 125I-11D10 on BrE-1 coated plate, 0.250 µg unlabeled 11D10"}, "BrE-3 [5]": {"target": "BrE-3", "assay": "RIA: plate coated with 1000 ng 11D10, 125I-BrE-3 bound"}, "[6]": {"target": "murine monoclonal anti-HMFG antibody MC-10 (BrE-1)", "assay": "RIA: plate coated with 100 ng 11D10, 125I-BrE-1 bound"}, "[7]": {"target": "murine monoclonal anti-HMFG antibody MC-10 (BrE-1)", "assay": "RIA: plate coated with 300 ng 11D10, 125I-BrE-1 bound"}, "[8]": {"target": "murine monoclonal anti-HMFG antibody MC-10 (BrE-1)", "assay": "RIA: plate coated with 1000 ng 11D10, 125I-BrE-1 bound"}, "BrE-3 [9]": {"target": "BrE-3", "assay": "RIA: plate coated with 300 ng 11D10, 125I-BrE-3 bound"}},
  "data": [
    {"substance": "monoclonal anti-idiotype antibody 11D10", "values": [
      {"measurement": "cpm Bound", "setting": "[1]", "result": 37100, "unit": "cpm"},
      {"measurement": "cpm", "setting": "BrE-3 [2]", "result": 263, "unit": "cpm"},
      {"measurement": "% inhibition", "setting": "[3]", "result": "> 90", "unit": "%"},
      {"measurement": "% inhibition", "setting": "[4]", "result": 95, "unit": "%"},
      {"measurement": "cpm Bound", "setting": "[4]", "result": 1850, "unit": "cpm"},
      {"measurement": "cpm", "setting": "BrE-3 [5]", "result": 374, "unit": "cpm"},
      {"measurement": "cpm", "setting": "[6]", "result": 6150, "unit": "cpm"},
      {"measurement": "cpm", "setting": "[7]", "result": 16700, "unit": "cpm"},
      {"measurement": "cpm", "setting": "[8]", "result": 44200, "unit": "cpm"},
      {"measurement": "cpm", "setting": "BrE-3 [9]", "result": 260, "unit": "cpm"}
    ]}
  ]
}
